One test concerns the target HLA-A*30:01. Put plainly: IEDB peptide-MHC binding, purified MHC/competitive/radioactivity; filed as Kd, often an IC50 or EC50 that approximates it; ≥ and ≤ were set here for values at or beyond the usual limits of such assays.
A further test has as its target HLA-A*24:02. The test is described as above.
The next test deals with HLA-A*69:01. Kind of test: IEDB peptide-MHC binding, purified MHC/direct/fluorescence; filed as Kd, often an IC50 or EC50 that approximates it; ≥ and ≤ were set here for values at or beyond the usual limits of such assays. Conditions: source organism: West Nile virus.
Test [1] has as its target HLA-A*02:01. Put plainly: IEDB peptide-MHC binding, purified MHC/competitive/fluorescence; filed as Kd, often an IC50 or EC50 that approximates it; ≥ and ≤ were set here for values at or beyond the usual limits of such assays.
Test [2] concerns the target HLA-A*01:01. Kind of test: IEDB peptide-MHC binding, purified MHC/competitive/radioactivity; filed as Kd, often an IC50 or EC50 that approximates it; ≥ and ≤ were set here for values at or beyond the usual limits of such assays. Conditions: source organism: Dengue virus 2 Jamaica/1409/1983.
In a further test the target is HLA-B*44:02. The test is described as above.
The target in a further test is HLA-B*44:03. Described as above.
For another test, the target named is HLA-A*31:01. Put plainly: IEDB peptide-MHC binding, purified MHC/direct/fluorescence; filed as Kd, often an IC50 or EC50 that approximates it; ≥ and ≤ were set here for values at or beyond the usual limits of such assays.
The target in a further test is HLA-A*33:01. Kind of test: IEDB peptide-MHC binding, purified MHC/competitive/radioactivity; filed as Kd, often an IC50 or EC50 that approximates it; ≥ and ≤ were set here for values at or beyond the usual limits of such assays. Conditions: source organism: SARS coronavirus Tor2.
For another test, the target named is HLA-A*68:01. The description is as above. The conditions noted are these: source organism: SARS coronavirus Tor2.
Test [3] has as its target HLA-A*02:01. Kind of test: IEDB peptide-MHC binding, purified MHC/competitive/fluorescence; ≥ and ≤ were set here for values at or beyond the usual limits of such assays.
In test [4] the target is HLA-A*26:01. Put plainly: IEDB peptide-MHC binding, purified MHC/direct/fluorescence; filed as Kd, often an IC50 or EC50 that approximates it; ≥ and ≤ were set here for values at or beyond the usual limits of such assays. The conditions noted are these: source organism: Mycobacterium tuberculosis.
The target in another test is HLA-A*11:01. The test is described as above. The conditions noted are these: source organism: SARS-CoV1.
Test [5] has as its target HLA-A*03:01. The description is as above.
In a further test the target is HLA-B*58:01. The description is as above. Conditions: source organism: SARS-CoV1.
For a further test, the target named is HLA-B*27:05. The description is as above. The conditions noted are these: source organism: SARS-CoV1.
The next test addresses HLA-B*15:01. The test is described as above. The conditions noted are these: source organism: SARS-CoV1.
Test [6] has as its target HLA-A*26:01. Put plainly: IEDB peptide-MHC binding, purified MHC/competitive/radioactivity; filed as Kd, often an IC50 or EC50 that approximates it; ≥ and ≤ were set here for values at or beyond the usual limits of such assays.
Another test deals with HLA-B*40:01. Put plainly: IEDB peptide-MHC binding, purified MHC/direct/fluorescence; filed as Kd, often an IC50 or EC50 that approximates it; ≥ and ≤ were set here for values at or beyond the usual limits of such assays. Conditions: source organism: Mycobacterium tuberculosis.
Test [7] addresses HLA-A*03:01. Kind of test: IEDB peptide-MHC binding, purified MHC/competitive/radioactivity; filed as Kd, often an IC50 or EC50 that approximates it; ≥ and ≤ were set here for values at or beyond the usual limits of such assays. The conditions noted are these: source organism: Dengue virus 1 Brazil/97-11/1997.
The target of test [8] is HLA-A*01:01. Kind of test: IEDB peptide-MHC binding, purified MHC/direct/fluorescence; filed as Kd, often an IC50 or EC50 that approximates it; ≥ and ≤ were set here for values at or beyond the usual limits of such assays. The conditions noted are these: source organism: Yersinia pestis.
Setting [9] is: source organism: Vaccinia virus WR.
The mark [10] stands for this setting: source organism: Dengue virus 3 Martinique/1243/1999.
Setting [11] is: source organism: Dengue virus 2 Jamaica/1409/1983.
The mark [12] stands for this setting: source organism: Dengue virus 1 Singapore/S275/1990.
The mark [13] stands for this setting: source organism: Vaccinia virus Copenhagen.
[14] abbreviates: source organism: Dengue virus 1 Brazil/97-11/1997.
Where [15] appears, read: source organism: Sudan ebolavirus.
Setting [16] is: source organism: Dengue virus 4 Philippines/H241/1956.
[17] abbreviates: source organism: Zaire ebolavirus.
Setting [18] is: source organism: Shigella sonnei Ss046.

A word on the Kd: it is the concentration at which binding is half-saturated. What is called IC50 is the midpoint of a concentration-inhibition curve. Low readings indicate higher potency, high ones lower potency.

For KVMFVIRFK, the Kd with HLA-A*30:01 (setting [9]) was 0.597 nM.

Consider KHMIAGVFF, for which the Kd in the test with HLA-A*24:02 (setting [10]) was 837 nM.

Take SYTQVCDHRL: in the test with HLA-A*24:02 (source organism: Dengue virus 1 Nauru/West Pac/1974), the Kd was 930 nM.

Regarding SLARGFPFV, the Kd with HLA-A*69:01 is at most 1 nM; in the test with HLA-A*02:01 [1] (source organism: West Nile virus) it was 1.23 nM.

As for RTHTALIFL, in the test with HLA-A*30:01 (setting [9]), the Kd amounted to 0.704 nM.

Turning to FLHEDTEKI, the Kd with HLA-A*02:01 [1] (source organism: unidentified) worked out at 20 nM.

Turning to GVFPVSIPIT, the dissociation constant Kd with HLA-A*30:01 (setting [11]) was 7360 nM.

Turning to LTDGEERVIL, the Kd with HLA-A*01:01 [2] was at least 23600 nM.

With AQIMEVTARW, the results for the Kd with HLA-B*44:02 (setting [12]) and with HLA-B*44:03 (setting [12]) were 156 nM and 104 nM, respectively.

As for KVSPPSLGK, the Kd with HLA-A*30:01 (setting [9]) is 1.12 nM.

Take MTSLSAVSV: the dissociation constant Kd with HLA-A*30:01 (setting [9]) was 887 nM.

For the sequence AVLQSGFRK, the results for the Kd with HLA-A*31:01 (source organism: SARS-CoV1), with HLA-A*33:01 and with HLA-A*68:01 were 186 nM, at least 77700 nM and 393 nM, respectively.

As for FIPENQRTV, the IC50 with HLA-A*02:01 [3] (source organism: Human alphaherpesvirus 1 strain 17) was found to be 4220 nM.

On to YGLVSKFMS, for which the IC50 with HLA-A*02:01 [3] (setting [9]) was found to be 25600 nM.

VTTLGLPFY: the Kd with HLA-A*26:01 [4] worked out at 13000 nM.

On to AECPNTNRAW, for which the Kd with HLA-B*44:02 (setting [11]) is 35.6 nM; in the test with HLA-B*44:03 (setting [11]), 53 nM.

For the sequence KMKELSPRW, the Kd was at least 30200 nM with HLA-A*11:01; 5750 nM in the test with HLA-A*03:01 [5] (source organism: SARS-CoV1); 420 nM with HLA-B*58:01; 5250 nM with HLA-B*27:05; 1200 nM with HLA-B*15:01.

With KQSQSYLTK, the dissociation constant (Kd) in the test with HLA-A*30:01 (setting [9]) came out at 158 nM.

With EIPLQWIASA, the Kd with HLA-A*26:01 [6] (setting [10]) worked out at 2620 nM.

LEYDGFADF displayed a Kd with HLA-B*40:01 of 42.4 nM.

With HLSNSFFIK, in the test with HLA-A*30:01 (setting [9]), the Kd was found to be 17.3 nM.

On to IIKSPYMFA, for which, in the test with HLA-A*30:01 (setting [13]), the Kd came to 6.42 nM.

The sequence LLSQYVDDA had an IC50 in the test with HLA-A*02:01 [3] (source organism: Vaccinia virus) of 23300 nM.

GRLITANPIV: the Kd in the test with HLA-A*30:01 (setting [14]) is at least 57100 nM.

Regarding ETLQRKYGGA, in the test with HLA-A*26:01 [6] (setting [11]), the Kd stood at 311 nM.

In the case of YVGDLCGSV, in the test with HLA-A*02:01 [3] (source organism: Hepatitis C virus genotype 1), the IC50 is at least 50000 nM.

As for RIRQGKFIK, the Kd with HLA-A*30:01 (setting [9]) came out at 4.79 nM.

Turning to SNGLITSTV, the IC50 with HLA-A*02:01 [3] (setting [15]) was found to be 60400 nM.

In the case of FIDNPLPNQ, the IC50 with HLA-A*02:01 [3] (setting [15]) was 28100 nM.

Regarding TVVPLMAFL, the Kd with HLA-A*02:01 [1] (source organism: Bacillus cereus G9241) came out at 48.5 nM.

Take WEPSKGWKNW: the Kd in the test with HLA-B*44:02 (setting [16]) stood at 150 nM.

For LARWSSFKK, the Kd was 6.79 nM with HLA-A*30:01 (setting [14]) and 171 nM with HLA-A*03:01 [7].

FSYGTLIID yielded an IC50 with HLA-A*02:01 [3] (source organism: Variola virus) of at least 283000 nM.

For AINGFVLPK, the Kd in the test with HLA-A*01:01 [8] is at least 20000 nM.

Sequence MNAPDDLVL yielded an IC50 with HLA-A*02:01 [3] (setting [17]) of at least 162000 nM.

Sequence SAMVQVHSQ yielded an IC50 with HLA-A*02:01 [3] (setting [17]) of at least 609000 nM.

Regarding VTDFKGKTV, the Kd in the test with HLA-A*01:01 [2] is at least 20300 nM.

Consider DEAHFTDPAS, for which, in the test with HLA-A*30:01 (setting [11]), the Kd worked out at 13900 nM.

HKIMASENS returned an IC50 with HLA-A*02:01 [3] (setting [17]) of at least 253000 nM.

For RPVLFRYTR, the results for the Kd with HLA-A*31:01 (setting [18]) and with HLA-A*03:01 [5] (setting [18]) were 416 nM and at least 20000 nM, respectively.

Take NLWNGIVPT: in the test with HLA-A*02:01 [1] (setting [13]), the Kd stood at 0.2 nM.

In the test with HLA-A*26:01 [4], EVSARIAAL registered a Kd of 12.4 nM.

Sequence NQDGLICGL gave an IC50 with HLA-A*02:01 [3] (setting [17]) of 28400 nM.

HERGRPLLF: the Kd in the test with HLA-B*44:03 (setting [16]) came to 1000 nM.

With IPLGVIHNS, the IC50 with HLA-A*02:01 [3] (setting [17]) is at least 185000 nM.
